Measurements reported in US20230408517A1 (BIO TECHNE, published 2023).
Like-named read-outs stand apart in the source and are kept apart here.

B1: 1035224 (antibody, V domains shown)
VH: EVQLQQSGAEFVRPGALVKLSCKASGFNIKDDYMHWVKQRPEQGLEWIGWIDPENGNSIYDPKFQGKASITADTSSNTAYLQLSSLTSEDTAVYYCARGEYFGSGSFAYWGQGTLVTVSA
VL: QIVLTQSPAIMSASPGEKVTISCSASSSVSYMYWYQQKPGSSPKPWIYRTSNLASGVPARFSGSGSGTSYSLTISSMEAEDAATYYCQQYHSYPYMYTFGGGTKLEIK
B2: 1035753 (antibody, V domains shown)
VH: EVQLQQSGAELVRPGALVKLSCKASGFNIKDYYMHWVKQRPEQGLEWIGWIDPENGNTIYDPKFLGKASITADTSSNTAYLQLSSLTSEDTAVYYCARWYYYAMDSWGQGTSVTVSS
VL: DIQMTQTTSSLSASLGDRVTISCSASQGISNYLNWYQQKPDGTVKLLIYYTSSLHSGVPSRFSGSGSGTDYSLTISNLEPEDIATYYCQQYSKLPFTFGGGTNLEMK

Experiments:
[1] = molecular target: T1, BR P.1 variant RBD (R319-F541 with K417T, E484K, N501Y), C-terminal 6-His (SARS-CoV-2, UniProt P0DTC2 319-541); test: flow cytometry, blocking of binding to hACE-2 cells
[2] = molecular target: rSARS2-B.1.1.7 S aa16-1211 2x aa mut., C-His (SARS-CoV-2, UniProt P0DTC2 16-1211); test: as above
[3] = molecular target: rSARS2-B.1.617.2 S aa16-1211 10+4x aa mut., C-His (SARS-CoV-2, UniProt P0DTC2 16-1211); test: as above
[4] = molecular target: T2, IN v2 variant RBD (R319-F541 with L452R, T478K) (SARS-CoV-2, UniProt P0DTC2 319-541); test: as above
[5] = molecular target: rSARS2 RBD aa319-541, N439K, C-His (SARS-CoV-2, UniProt P0DTC2 319-541); test: as above
[6] = molecular target: rSARS2-B.1.1.7 S aa16-1211 4x aa mut., C-His (SARS-CoV-2, UniProt P0DTC2 16-1211); test: as above
[7] = molecular target: T3, UK variant RBD (R319-F541 with N501Y), C-terminal 6-His (SARS-CoV-2, UniProt P0DTC2 319-541); test: sandwich dipstick, detector Ab5-AuNP
[8] = molecular target: T1, BR P.1 variant RBD (R319-F541 with …); test: sandwich dipstick, detector Ab5-AuNP
[9] = molecular target: T4, SA variant RBD (R319-F541 with K417N, E484K, N501Y), C-terminal 6-His (SARS-CoV-2, UniProt P0DTC2 319-541); test: sandwich dipstick, detector Ab5-AuNP
[10] = molecular target: T5, recombinant SARS-CoV-2 spike S1 RBD (R319-F541), C-terminal 6-His (SARS-CoV-2, UniProt P0DTC2 319-541); test: sandwich dipstick, detector Ab5-AuNP
[11] = molecular target: T3, UK variant RBD (R319-F541 with N501Y), …; test: lateral flow NC50, RBD-AuNP vs immobilised ACE2
[12] = molecular target: T1, BR P.1 variant RBD (R319-F541 with …); test: lateral flow NC50, RBD-AuNP vs immobilised ACE2
[13] = molecular target: T4, SA variant RBD (R319-F541 with K417N, …); test: lateral flow NC50, RBD-AuNP vs immobilised ACE2
[14] = molecular target: T5, recombinant SARS-CoV-2 spike S1 RBD …; test: lateral flow NC50, RBD-AuNP vs immobilised ACE2
[15] = molecular target: T5, recombinant SARS-CoV-2 spike S1 RBD …; test: flow cytometry, blocking of binding to hACE-2 cells
[16] = molecular target: T6, L452R RBD (R319-F541 with L452R) (SARS-CoV-2, UniProt P0DTC2 319-541); test: dipstick, adsorbed RBD spots, Ab 10 µg/mL, GAM-AuNP
[17] = molecular target: T5, recombinant SARS-CoV-2 spike S1 RBD …; test: flow cytometry, blocking of binding to hACE-2 cells; remark: listed apart in the source
[18] = molecular target: BR P.2 variant RBD (R319-F541 with E484K) (SARS-CoV-2, UniProt P0DTC2 319-541); test: lateral flow NC50, RBD-AuNP vs immobilised ACE2
[19] = molecular target: T3, UK variant RBD (R319-F541 with N501Y), …; test: lateral flow NC50, RBD-AuNP vs immobilised ACE2; remark: listed apart in the source
[20] = molecular target: T1, BR P.1 variant RBD (R319-F541 with …); test: lateral flow NC50, RBD-AuNP vs immobilised ACE2; remark: listed apart in the source
[21] = molecular target: T478K RBD (R319-F541 with T478K) (SARS-CoV-2, UniProt P0DTC2 319-541); test: lateral flow NC50, RBD-AuNP vs immobilised ACE2
[22] = molecular target: T4, SA variant RBD (R319-F541 with K417N, …); test: lateral flow NC50, RBD-AuNP vs immobilised ACE2; remark: listed apart in the source
[23] = molecular target: T5, recombinant SARS-CoV-2 spike S1 RBD …; test: lateral flow NC50, RBD-AuNP vs immobilised ACE2; remark: listed apart in the source
[24] = molecular target: K417E RBD (R319-F541 with K417E) (SARS-CoV-2, UniProt P0DTC2 319-541); test: lateral flow NC50, RBD-AuNP vs immobilised ACE2
[25] = molecular target: T3, UK variant RBD (R319-F541 with N501Y), …; test: sandwich dipstick, detector Ab4-AuNP
[26] = molecular target: T1, BR P.1 variant RBD (R319-F541 with …); test: sandwich dipstick, detector Ab4-AuNP
[27] = molecular target: T4, SA variant RBD (R319-F541 with K417N, …); test: sandwich dipstick, detector Ab4-AuNP
[28] = molecular target: T5, recombinant SARS-CoV-2 spike S1 RBD …; test: sandwich dipstick, detector Ab4-AuNP
[29] = molecular target: T7, IN v1 variant RBD (R319-F541 with L452R, E484Q) (SARS-CoV-2, UniProt P0DTC2 319-541); test: lateral flow assay: blocking of RBD-AuNP capture by ACE2
[30] = molecular target: T2, IN v2 variant RBD (R319-F541 with …); test: as above
[31] = molecular target: T7, IN v1 variant RBD (R319-F541 with …); test: as above; remark: listed apart in the source
[32] = molecular target: T2, IN v2 variant RBD (R319-F541 with …); test: as above; remark: listed apart in the source
[33] = molecular target: T6, L452R RBD (R319-F541 with L452R); test: as above

| Binder | percent blocking [1] | percent blocking [2] | percent blocking [3] | percent blocking [4] | percent blocking [5] | percent blocking [6] | detection sensitivity [7] | detection sensitivity [8] | detection sensitivity [9] | detection sensitivity [10] | IC50 [11] | IC50 [12] | IC50 [13] | IC50 [14] | percent blocking [15] | percent blocking [17] | IC50 [18] | IC50 [19] | IC50 [20] | IC50 [21] | other results |
| --- | --- | --- | --- | --- | --- | --- | --- | --- | --- | --- | --- | --- | --- | --- | --- | --- | --- | --- | --- | --- | --- |
| B1 | 88% | 33.9% | 0% | 0% | 96.1% | 74.1% | 0.001 µg/mL | 0.001 µg/mL | 0.001 µg/mL | 0.001 µg/mL | 2.72 µg/mL | 1.11 µg/mL | 1.14 µg/mL | 0.66 µg/mL | 99.1% | 99.1% | 0.54 µg/mL | 2.72 µg/mL | 1.11 µg/mL | 0.76 µg/mL | binding result [16]: no binding (tested: 10 µg/mL); IC50 [22]: 1.14 µg/mL; IC50 [23]: 0.66 µg/mL; IC50 [24]: 0.38 µg/mL; detection sensitivity [25]: 0.01 µg/mL; detection sensitivity [26]: 0.01 µg/mL; detection sensitivity [27]: 0.01 µg/mL; detection sensitivity [28]: 0.01 µg/mL; binding result [29]: no binding (tested: 10 µg/mL); binding result [30]: no binding (tested: 10 µg/mL) |
| B2 | 90.4% | 93.6% | 0% | 0% | 96.2% | 81.2% | 0.001 µg/mL | 0.001 µg/mL | 0.001 µg/mL | 0.001 µg/mL | 1.51 µg/mL | 2.21 µg/mL | 3.19 µg/mL | 1.66 µg/mL | 94.7% | 94.7% | 3.22 µg/mL | 1.51 µg/mL | 2.21 µg/mL | 2.29 µg/mL | binding result [31]: no binding (tested: 10 µg/mL); binding result [32]: no binding (tested: 10 µg/mL); binding result [33]: no binding (tested: 10 µg/mL); IC50 [22]: 3.19 µg/mL; IC50 [23]: 1.66 µg/mL; IC50 [24]: 0.89 µg/mL; detection sensitivity [25]: 0.01 µg/mL; detection sensitivity [26]: 0.01 µg/mL; detection sensitivity [27]: 0.01 µg/mL; detection sensitivity [28]: 0.01 µg/mL |
